Measured values taken from patent publication US20130251702A1, “METHOD FOR SCREENING COMPOUNDS FOR TREATING SEPSIS TARGETING NOD2 SIGNALLING PATHWAY AND COMPOSITION FOR TREATING SEPSIS COMPRISING NOD2 SIGNALLING PATHWAY INHIBITORS” (SNU R&DB FOUNDATION, priority 2012, published 2013).

Tests used:
[1] = system: NOD2-mediated IL-1β and IL-10 production; assay: Peritoneal immune cells cultured with SB203580 and/or MDP, IL-1β and IL-10 measured in culture; type: cell-based, mice
Protocol: (§1) Concentrations of IL-1β, IL-6, IL-10, IFN-γ, TNF-α and C5a in serum and peritoneal fluid were measured in CLP-induced sepsis mice. All cytokines were measured using a BD Bioscience ELISA kit according to the manufacturer's instructions. Colorimetric reactions were stopped by adding 3 N HCl, and the optical absorbance at 450 and 570 nm was determined using a spectrophotometer.
To investigate the mechanism by which NOD2 enhances C5 generation during polymicrobial infection, serum and peritoneal levels of various cytokines in WT and Nod2^−/− mice were estimated after CLP. […] To confirm whether NOD2-mediated signals induce IL-1β and IL-10 production by immune cells, peritoneal cells from WT and Nod2^−/− mice were cultured with MDP, a NOD2 agonist. […] Among immune cells, monocytes, granulocytes, and dendritic cells, but not T or B cells, express NOD 2 (Gutierrez, O. et al. Induction of Nod2 in myelomonocytic and intestinal epithelial cells via nuclear factor-kappa B activation. J Biol Chem 277, 41701-41705 (2002)).
Upon activation, NOD2 oligomerizes and recruits the nuclear factor (NF)-κB-activating kinase receptor-interacting protein 2 (RIP2) via a homotypic CARD-CARD (caspase recruitment domain) interaction, triggering IκB phosphorylation and NF-κB activation.

[2] = system: CLP-induced sepsis mice; assay: Serum and peritoneal cytokine and complement levels (ELISA) in CLP-induced sepsis mice; type: in vivo; settings: for serum and peritoneal C5a generation: WT or Nod2−/− mice, recombinant cytokine 4 h or 12 h after CLP
Protocol: (§2) To deplete Gr-1^+cells in vivo, WT B6 or NOD2−/− mice were i.p. injected with anti-Gr-1 mAb (160 μg/injection) (BD Bioscience, Sparks, Md., USA) 2 and 3 days prior to CLP. Recombinant mouse (mr) IL-1β (40 μg/mouse) or IL-10 (30 μg/mouse) (ProSpec-Tany TechnoGene, Rehovot, Israel) was i.p. injected into WT or Nod2^−/− mice 4 or 12 h after CLP, respectively. mrC5a (5 μg/injection) or anti-05a mAb (100 μg/injection) (R&D Systems Inc., Minneapolis, Minn., USA) was i.p. injected into WT or Nod2^−/− mice 4 and 12 h after CLP.
as §1

[3] = system: CLP-induced sepsis; assay: Survival in CLP-induced sepsis; type: in vivo, mice; settings: for survival during CLP-induced sepsis: WT mice injected with recombinant protein after CLP
Protocol: as §2
Survival data were plotted as Kaplan-Meier survival curves and analyzed using the log-rank test. Statistical significance was analyzed using Prism 5.0 (GraphPad Software Inc, San Diego, Calif., USA). One-way and two-way analyses of variance (ANOVA) and t-tests was performed, and a post hoc test was used if P<0.05. Data are expressed as the mean±standard error of the mean.

[4] = system: CD55; assay: CD55 expression on Ly6-G+ peritoneal cells (flow cytometry) after CLP; type: in vivo, mice
Protocol: as §2
PLF cells were incubated with antibodies on ice for 30 min in 100 μl of staining buffer (0.5% BSA). FITC-conjugated anti-Ly-6G, phycoerythrin (PE)-conjugated anti-CD4 mAb, PE-conjugated anti-CD8, PE-conjugated anti-MHC class II, FITC-conjugated anti-CD80, FITC-conjugated anti-CD86, FITC-conjugated anti-annexin V mAbs, and 7AAD (7-amino-actinomycin D) were purchased from BD Biosciences. PE Cy5- or Alexa 647 (eBioscience, San Diego, Calif., USA)-conjugated anti-F4/80 mAb was used. Stained cells were then run on an LSR II and FACs caliber (BD Bioscience) and analyzed using Flowjo software (Treestar, Ashland, Oreg., USA).

[5] = target: T1, RIP2 (Mus musculus, UniProt P58801); assay: Blot of RIP2 phosphorylation in peritoneal immune cells during CLP-induced sepsis; type: in vivo; settings: WT mice, SB203580 50 μg/mouse i.p.
T1 construct: reduced phosphorylation of RIP2 and P38 in peritoneal immune cells; endogenous in cells

[6] = cited from earlier work
[7] = Serum D-dimer levels after CLP; type: in vivo; settings: Nod2−/− mice with CLP
Description: During bacterial septic shock, C5a triggers coagulopathy and neutrophil dysfunction, thereby defective bacterial clearance and cytokine production (Ward, P. A. The dark side of C5a in sepsis. Nat Rev Immunol 4, 133-142 (2004)). Therefore, to estimate C5a effects on immune responses in WT B6 and Nod2^−/− mice during infection, we examined the responsiveness of immune cells against lipopolysaccharide (LPS) and macrophage phagocytic activity, bacteria colony-forming units (CFUs), and levels of serum D-dimer after CLP. To estimate the responsiveness of peritoneal immune cells against LPS, peritoneal cells obtained from B6 or Nod2^−/− mice 24 h after CLP were stimulated with LPS or PBS (FIG. 1C). The responsiveness of peritoneal immune cells against LPS was determined by estimating ratios of individual cytokines produced against LPS versus PBS. Peritoneal immune cells obtained from Nod2^−/− mice 24 h after CLP produced higher IL-1β, IL-6, and TNF-αlevels against LPS than did WT peritoneal cells. The levels of serum D-dimer in Nod2^−/− mice were lower than those in WT mice (FIG. 1D). However, peritoneal cells obtained from Nod2^−/− mice engulfed more FITC-conjugated Escherichia coli than did WT peritoneal cells (FIG. 1E). Consistent with these findings, bacteria CFU levels in the blood and liver homogenates were higher in WT B6 mice than in Nod2^−/− mice (FIG. 1F). […]

[8] = system: peritoneal immune cells; assay: Responsiveness of peritoneal immune cells from CLP mice against LPS (cytokine production LPS vs PBS); type: in vivo; settings: for LPS-mediated cytokine production by peritoneal immune cells: cells from Nod2−/− mice with CLP
Protocol: as §2
During bacterial septic shock, C5a triggers coagulopathy and neutrophil dysfunction, thereby defective bacterial clearance and cytokine production (Ward, P. A. The dark side of C5a in sepsis. Nat Rev Immunol 4, 133-142 (2004)). Therefore, to estimate C5a effects on immune responses in WT B6 and Nod2^−/− mice during infection, we examined the responsiveness of immune cells against lipopolysaccharide (LPS) and macrophage phagocytic activity, bacteria colony-forming units (CFUs), and levels of serum D-dimer after CLP. To estimate the responsiveness of peritoneal immune cells against LPS, peritoneal cells obtained from B6 or Nod2^−/− mice 24 h after CLP were stimulated with LPS or PBS (FIG. 1C). The responsiveness of peritoneal immune cells against LPS was determined by estimating ratios of individual cytokines produced against LPS versus PBS. Peritoneal immune cells obtained from Nod2^−/− mice 24 h after CLP produced higher IL-1β, IL-6, and TNF-αlevels against LPS than did WT peritoneal cells. The levels of serum D-dimer in Nod2^−/− mice were lower than those in WT mice (FIG. 1D). However, peritoneal cells obtained from Nod2^−/− mice engulfed more FITC-conjugated Escherichia coli than did WT peritoneal cells (FIG. 1E). Consistent with these findings, bacteria CFU levels in the blood and liver homogenates were higher in WT B6 mice than in Nod2^−/− mice (FIG. 1F). Recombinant C5a administration to Nod2^−/− mice with CLP reversed cytokine production by peritoneal immune cells and serum D-dimer levels, but not phagocytosis activity and bacterial CFUs.

[9] = system: bacteria; assay: Bacterial CFUs in blood and liver homogenates after CLP; type: in vivo; settings: Nod2−/− mice with CLP
Protocol: Bacterial CFUs were determined by plating serial dilutions of blood and liver homogenates onto blood agar plates (Hanil Komed, Seoul, Korea), which were incubated in 5% CO2 at 37° C. overnight. The number of colonies was counted 18 h later.

[10] = system: peritoneal cells; assay: Bacterial phagocytosis by peritoneal immune cells (FITC-labeled E. coli); type: in vivo; settings: Nod2−/− mice with CLP
Protocol: Peritoneal fluid cells of WT B6 or Nod2^−/− mice were cultured with FITC-labeled E. coli (Invitrogen, Carlsbad, Calif., USA) for 15 min. Cells attached on the plates were washed with warm PBS three times and then treated with 0.2% trypan blue for 1 min at room temperature. Cells were fixed with 4% formalin for 15 min and cultured with FITC-labeled E. coli. to estimate nonspecific binding of E. coli on the cell surface. These cells, which were cultured with FITC-labeled E. coli, were then run on the FACs caliber machine and analyzed with Flowjo software.

[11] = WT mice, CLP, SB203580 50 μg/mouse i.p.
[12] = WT mice peritoneal immune cells, SB203580 20 nM, MDP 20 μg/ml, 24 h
[13] = 73 patients treated, Critical Care Medicine 2009
[14] = Nod2−/− mice injected with recombinant protein after CLP
[15] = Nod2−/− mice, polymicrobial infection

T1 sequence (P58801 whole entry): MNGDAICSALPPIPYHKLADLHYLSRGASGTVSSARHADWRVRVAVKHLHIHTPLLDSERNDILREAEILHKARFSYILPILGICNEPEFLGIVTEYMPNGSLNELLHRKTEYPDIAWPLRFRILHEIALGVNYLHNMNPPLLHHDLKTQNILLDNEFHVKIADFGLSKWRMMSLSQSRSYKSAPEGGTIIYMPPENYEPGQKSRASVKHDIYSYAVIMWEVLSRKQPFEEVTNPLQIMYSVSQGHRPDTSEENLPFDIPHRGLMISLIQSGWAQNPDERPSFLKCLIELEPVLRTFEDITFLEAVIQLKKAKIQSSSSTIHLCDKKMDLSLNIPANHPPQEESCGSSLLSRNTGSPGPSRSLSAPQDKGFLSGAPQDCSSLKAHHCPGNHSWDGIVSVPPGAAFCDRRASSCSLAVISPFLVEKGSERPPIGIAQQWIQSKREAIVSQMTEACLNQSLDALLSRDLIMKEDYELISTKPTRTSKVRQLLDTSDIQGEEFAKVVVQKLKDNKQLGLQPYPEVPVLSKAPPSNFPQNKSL

Which results are given for CC(=O)N[C@@H]1[C@@H](O[C@H](C)C(=O)N[C@@H](C)C(=O)N[C@H](CCC(=O)O)C(N)=O)[C@H](O)[C@@H](CO)O[C@H]1O [MDP]?
IL-1β production upon MDP treatment ([1]; NOD2-deficient cells): minimally produced; IL-10 production upon MDP treatment ([1]; NOD2-deficient cells): minimally produced; IL-1β production upon MDP treatment ([1]; WT peritoneal immune cells): produced; IL-10 production upon MDP treatment ([1]; WT peritoneal immune cells): produced

Which “levels of serum and peritoneal C5a during sepsis” value [2, 11] does the source give for C[S+]([O-])c1ccc(-c2nc(-c3ccncc3)c(-c3ccc(F)cc3)[nH]2)cc1 (centres unmarked) [SB203580, reference compound] here?
The value was “reduced”.

And the “levels of serum and peritoneal IL-1β during sepsis” value [2, 11]?
Its value is “reduced”.

What about the “levels of serum and peritoneal IL-10 during sepsis” value [2, 11] of the same molecule?
The value was “reduced”.

What about the CLP-induced sepsis ([3]; WT mice injected with SB203580, FIG. 6 legend) of the same molecule?
Its CLP-induced sepsis is “attenuates”.

What about the “survival rates during CLP-induced sepsis” value ([3]; WT mice, SB203580 50 μg/mouse i.p. vs PBS) of the same molecule?
The value was “increased”.

What about the “MDP-mediated IL-1β production by peritoneal cells” value [1, 12] of the same molecule?
Its value is “decreased”.

What about the “MDP-mediated IL-10 production by peritoneal cells” value [1, 12] of the same molecule?
The value was “decreased”.

What about the “CD55 expression levels of Ly6-G+ granulocytes” value [4, 11] of the same molecule?
The value was “reduced”.

And the “phosphorylation of RIP2 in peritoneal immune cells” value [5]?
Its value is “reduced”.

For Drotrecogin alfa [Xigris], which fatality [6, 13] is on record?
Its fatality is “increased”.

What about the hemorrhage [6, 13] of the same molecule?
Its hemorrhage is “severe hemorrhage had occurred”.

And the “severe side effect in clinical trial” value ([6]; pediatric patients with severe blood infection)?
The value was “cerebral hemorrhage”.

B1: recombinant C5a: recombinant mouse C5a, i.p. injected 5 μg/injection (protein, UniProt P06684 679-755, looked up)
C5a anaphylatoxin: NLHLLRQKIEEQAAKYKHSVPKKCCYDGARVNFYETCEERVARVTIGPLCIRAFNECCTIANKIRKESPHKPVQLGR
modifications: C5a anaphylatoxin
notes: recombinant mouse C5a, i.p. injected 5 μg/injection
Which “serum D-dimer levels” value [7] does the source give for B1 here?
Its value is “reversed”.

What about the “survival rates during CLP-induced sepsis” value [3, 14] of the same molecule?
Its value is “decreased”.

What about the “survival during CLP-induced sepsis” value [3] of the same molecule?
The value was “did not cause survival changes”.

And the “LPS-mediated cytokine production by peritoneal immune cells” value [8]?
The value was “reversed”.

And the “bacterial CFUs in the blood or liver homogenates” value [9]?
The value was “not”.

B2: recombinant IL-10: Recombinant mouse IL-10, 30 μg/mouse i.p. (protein, UniProt P18893 19-178, looked up)
Interleukin-10: SRGQYSREDNNCTHFPVGQSHMLLELRTAFSQVKTFFQTKDQLDNILLTDSLMQDFKGYLGCQALSEMIQFYLVEVMPQAEKHGPEIKEHLNSLGEKLKTLRMRLRRCHRFLPCENKSKAVEQVKSDFNKLQDQGVYKAMNEFDIFINCIEAYMMIKMKS
Which results are given for B2?
serum and peritoneal C5a generation [2]: enhanced; survival rates during CLP-induced sepsis [3, 14]: reduced; survival during CLP-induced sepsis [3]: did not affect; LPS-mediated cytokine production by peritoneal immune cells [8]: suppressed; bacterial CFUs in the blood or liver homogenates [9]: not; CD55 expression on F4/80−Ly6-G+ peritoneal cells [4, 15]: decreased

B3: recombinant IL-1β: Recombinant mouse (mr) IL-1β, 40 μg/mouse i.p. (protein, UniProt P10749 118-269, looked up)
Interleukin-1 beta: VPIRQLHYRLRDEQQKSLVLSDPYELKALHLNGQNINQQVIFSMSFVQGEPSNDKIPVALGLKGKNLYLSCVMKDGTPTLQLESVDPKQYPKKKMEKRFVFNKIEVKSKVEFESAEFPNWYISTSQAEHKPVFLGNNSGQDIIDFTMESVSS
For B3, which “C5a levels during polymicrobial infection” value ([2]; Il-10−/− mice with CLP) is on record?
Its value is “not altered”.

What about the “serum and peritoneal IL-10 levels” value ([2]; Nod2−/− mice, polymicrobial infection (CLP)) of the same molecule?
The value was “enhanced”.

What about the “serum and peritoneal C5a generation” value [2] of the same molecule?
Its value is “enhanced”.

What about the “survival rates during CLP-induced sepsis” value [3, 14] of the same molecule?
Its value is “reduced”.

And the “survival during CLP-induced sepsis” value [3]?
Its value is “did not affect”.

And the “phagocytosis of bacteria by peritoneal cells” value [10]?
Its value is “reduced”.

And the “LPS-induced cytokine production by peritoneal immune cells” value ([8]; cells from Il-10−/− mice with CLP)?
Its value is “did not alter”.

And the “LPS-mediated cytokine production by peritoneal immune cells” value [8]?
The value was “suppressed”.

What about the “bacterial CFUs in the blood or liver homogenates” value [9] of the same molecule?
Its value is “reduced”.

What about the “CD55 expression on F4/80−Ly6-G+ peritoneal cells” value ([4]; Il-10−/− mice) of the same molecule?
Its value is “did not decrease”.

And the “CD55 expression on F4/80−Ly6-G+ peritoneal cells” value [4, 15]?
The value was “decreased”.
